Results as given in the nanobody polyreactivity screen of Harvey et al. (2022).

Experiment: yeast display, Sf9 membrane polyspecificity reagent, FACS + sequencing; frameworks hold sequencing errors
Summary of the method: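 Genes from sorted yeast were amplified by colony PCR, read by MiSeq 2 × 250 sequencing and filtered on CDR length. These cells carried a synthetic nanobody library in Saccharomyces cerevisiae BJ5465 and were sorted by FACS into low and high (top ~1%) gates on anti-HA and streptavidin fluorescence. Polyreactivity is labelled according to the gate of origin.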

Sequence | polyreactivity (PSR sort gate)
QVQLVESGGGLVQAGGSLRLSCAASGFIFTRYAMGWYRQAPGKERELVAAISGTGGSTYYADSVKGRFTISRDNSKNTFFLQMNSLKPEDTAVYYCAAGYFVYLKYGYWGQGTKVTVSS | high polyreactivity
QVQLVDSGGGLVQAGGILRLSCAASGFILSDNAMGWYRQGPGKERELVAAINSGGSTYYADSVKGRFTISRDNAMNTVYLQMNSLKPEDTAVYYCAADFSTWLRAYDYWGQGTQVTVSS | low polyreactivity
QVQLVESGGGLVQAGGSLRLSCAASGFTFGGYAMGWYRQAPGNERELVAAISKSGGRTYYADSVKGRFTISRDNAKNTVYLQMNSLKPEDTAVYYCAASTIWHYDSWGQGTQVTVSS | high polyreactivity
QVQLVESGGGLVQAGGSLRLSCAASGRIFTSYAMGWYRQAPGKEREFVAAITRRGGSTYYADSVKGRFTISRDNAKNTVYLQMKSLKQEDTAVYYCAADIYSVPYPSWARYDYWGQGTQVTVSS | high polyreactivity
QVQLVESGGGLVQAGGSLRLSCAASGSIFDVNTMGWYRQAPGKERELVAAITNGDRTNYADSVKGRFTISRDNAKNTVYLQMNSLKPEDTAVYYCNTDQGTTSDYGYWGQGTQVTVSS | low polyreactivity
QVQLVESGGGLVQAGGSLRLSCAASGSTFRSNAMGWYRQAPGKEGELVAAISSRVGTTNYADSVKGRFTISRDNAKNTVYLQMNSLKPEDTAVYYCAAQGWRYYRTVVPMDYWGQGTQVTVSS | low polyreactivity
QVQLVESGGGLVQAGGSLRLRCAASGSTFTKNAMGWYRQAPGKERELVAAISFTTGRTYYADSVKGRFTISRDNAKNTVYLQMNSLKPEDTAVYYCNKVYARSEQRGPVAGNYWGQGTQVTVSS | high polyreactivity
QVQLVESGGGLVQAGGSLRLSCDASGITYHNYAMGWYRQAPGKEREYVAAITRNTASSYYADSVKGRFSISRDKAKNTVYFQMNSLKPEDTAVYYCAATDKKHRTAYDSWGQGTQVTVSS | low polyreactivity
QVQLVESGGGLVQAGGSLRLSCAASGSTFVGYAMGWYRQAPGKERELVADIDSIGGSTYYADSVKGRFTISRDNAKNTVYLQMNSLKPEDTAVYYCAAYQHPGLRTSYEYWGQGTQVTVSS | low polyreactivity
QVQLVESGGGLVQAGGSLRLSCAASGIIFGFYAMGWYREAPGKERELVADITNDGGNTNYADSVKGRFTISRDNAKNTVYLQMNSLKPEDTAVYYCNADRTQVRNRYTYATFDYWGQGTQVTVSS | low polyreactivity
QVQLVESGGGLDQARGTLRLSCAASGITITLYAMGWYRQTPGKESELVAAISRGGGTTNYADSVKGRFTISRDNAKNTVFLELNSLKPEDNAVYYCAAAYTIYWFSYRVLYYYWGQGTQVTVSS | low polyreactivity
QVQLVESGGGLVQAGGSLRLSCAASGSTFYYYAMGWYRQAPGKERELVASITTGGGSTYYADSVKGRFTISRDYAKNTVYLQMNSLKPEDTAVYYCAAALAYYYWWYDYWGQGTQVTVSS | low polyreactivity
QVQLVESGGGLVQAGGSLRLSCAASGRNFRYYAMGWYRQAPGKERELVAAITTGSSTYYADSVKGRFTISRDNAKNTVYLQMNSLKPEDTAVYYCNVFQGTRYGYWGQGTQVTVSS | low polyreactivity
QVQLVESGGGVVQAGGSLRLSCAASGNIFAVYAMGWYREAPGKERELVAAIRKSGATTYYADSVKGRFTISRDNAKNTVYLQIHSLKPEDTAVYYCAARTFKDAGTAYGSWGQGTQVTVSS | high polyreactivity
QVQLVESGGGLVQAGGSLRLSCAASGNTFEYYVMGWYRQAPGKERELVAAITWSTGSTYYADSVKGRFTISRDNAKNTVYLQMNSLKPEDTAVYYCAALYYFIFGRPTRFDYWGQGTQVTVSS | low polyreactivity
QVQLVESGGGLVQAAGSLRLSCAASGSIFDPNVMGWYRQAPGKERELVATISSDGTTTYADSVKGRFTISRDNAKNTVYLQMNSLKPEDTAVYYCATEWDIDPRRSVGYPIGYGYWGQGTQVTVSS | low polyreactivity

Sequence | polyreactivity (PSR sort gate)
QVQLVESGGGLVQAGGSLRLSCAASGRIFKNYAMGWYRQAPGKERELVAAISWSGGRTYYADSVKGRFTISRDNAKNTVYLQMNSLKPEDTAVYYCAASIRTGYRYGYWGQGTQVTVSS | high polyreactivity
QVQLVESGGGLVQARGSLRLSCAASGRTFRSYAMGWYRQAPGKERELVAVITRSTGNTYYADSVKGRFTISRDNAMNTVYLQMNSLKPEDTAVYYCARQYRRYDYWGQGTQVTVSS | high polyreactivity
QVQLVDSGGALVQAGGSLRLSCAASGSTFAYYAMGWYRQAPGKERELVAAITASATNTYYADSVKGRFTISRDNAKNTVYLQMNSLKPEDTAVYYCAADDVDVEHQASWDDYDSWGQGTQVTVSS | low polyreactivity
QVQLVESGGGLVQAGGSLRLSCAASGRIFSGYAMGCYRQAPGKERELVAAITSRSGSTYYADSVKGRFTISRDNAKKTVYLQMNSLKPEDTAVYYCAAEYVRFYWYTSDYWGQGTQVTVSS | low polyreactivity
QVQLVESGGGLVQAGGSLRLICAASGSTFGPYDMGWYRQAPGKERELVADITSGGSTYYADSVKGRFTISRDNAKNTVYLQMNSLKPEDTAVYYCAADRVWPYYQYDYWGQGTQVTVSS | low polyreactivity
QVQHVESGGGLVQAGGSLRLSCAASGSIYYLNAMGWYRQGPGKEWELVAAINRGGSTSYADSVKGRFTISRDNAKNTVYLQMNSLKEADTAVYYCAADHGGVQYSVRYDYWGQGTQLTVSS | low polyreactivity
QVQLQESGGGMVQAGGSLRLSCAASGYISWADYMVWYRQAPGKERELVAGIGYGSTTYYADSVKGRFTISRANAKNTAYLQMNSLKPEDTAVYYCAVGWYRDTAYKYWGQGTQVTVSS | low polyreactivity
QVQLVESGVCLVQAGGSLRLSCASSGRILSTYAMGWYRQPPGKERELVAAISSGGSTYYADSVKGRFTISRDNAKHTVDLQMNSLKPEDTAVYYCNARKKRGYSRPAFDYWGQGTQVTVSS | high polyreactivity
QVQLVESGGGLVQAGGSLRLSCAASGSSFTPNALGWYRQAPGKERELVAAISSSSDRTYYADSVKGRFTISRDNAKNTVYLQMNSLKPEDTAVYYCNARTEYASSRYYYWGQGTQVTVSS | high polyreactivity
QVQLVESGGGVVQAGGSLRLSCAASGSILNNYAMGWYRPAPGKERELVAAISSSGGTNYADSVKGRFTISRDNAKNTVFLQMNSLKPEDTAVYYCNADVLDGGYVYWGQGTQVTVSS | low polyreactivity
QLQLVESGGGLVQAGGSLRLSCAASGLIQANYAMGWYRQAPGKERELVAAISSSGGSTYSADSVKGRFSISRDNAKNTVYLQMKSLKPEDTAVYYCAAYPLYRRRWTGDYWGQGTQVTVSS | high polyreactivity
QVQLVESGGGLVQAGGSLRLSCAASGYTFRSYAMGWYRQAPGKEWEFVASISSSGGSTYYADSVKGRFTISRDNAKNTVYLQMNSLKPEDTAVYYCAASVVSYPYDEYDYWGQGTQVTVSS | low polyreactivity
QVQLVESGGGLVQAGGSLSLRCAASGRTLDVYAMGWYRQAPGKERELVARITSGGSTNYADSVKGRFTISRDNAKNTVYLQMNSLKPEDTSVYYCNAVVYTRPYTRPRYRYDYWGQGTQVTVSS | high polyreactivity
QVQHVESGGGLVQARGSLRLSCSASGGTFSVYPMGWSRQAPVKERELLADISWSDASTYYADSVKGRFTISRDNAKNTVYLQMNSLKPEDTAVYYCAVSRQSGKGGSKELNDYWVQGTQVTVSS | low polyreactivity
QVQLVESGGGLVQAGGSLRLSCAASGRTFRTYAMGWYRQAPGKERELVAAITSRAGSTYYADSVKGRFTISRDNAKNSVYLQMNSLKPEDTAVYYCAKQYYYGWYWGEDYWGQGTQVTVSS | low polyreactivity
QVQLVESGGGLVQAGGSLRLSCAASGRIFWHNAMGWYRQAPGQERELVAAITGGGSTYYADSVKGRFSISRDDAKNTVYLQMNSLKPEDTAVYYCATLGSLRYYWPGYDYWGQGTQVTVSS | low polyreactivity
